IntAct's records for PubMed 25066297

B1: Probable thioesterase PNKD (Homo sapiens), Q8N490 (parent)
chain: MAAVVAATALKGRGARNARVLRGILAGATANKASHNRTRALQSHSSPEGKEEPEPLSPELEYIPRKRGKNPMKAVGLAWYSLYTRTWLGYLFYRQQLRRARNRYPKGHSKTQPRLFNGVKVLPIPVLSDNYSYLIIDTQAQLAVAVDPSDPRAVQASIEKEGVTLVAILCTHKHWDHSGGNRDLSRRHRDCRVYGSPQDGIPYLTHPLCHQDVVSVGRLQIRALATPGHTQGHLVYLLDGEPYKGPSCLFSGDLLFLSGCGRTFEGNAETMLSSLDTVLGLGDDTLLWPGHEYAEENLGFAGVVEPENLARERKMQWVQRQRLERKGTCPSTLGEERSYNPFLRTHCLALQEALGPGPGPTGDDDYSRAQLLEELRRLKDMHKSK

Variants of: B1
Conditions: with mk03_human MAPK3, P27361
Sequence of mk03_human MAPK3, P27361 (P27361 whole entry): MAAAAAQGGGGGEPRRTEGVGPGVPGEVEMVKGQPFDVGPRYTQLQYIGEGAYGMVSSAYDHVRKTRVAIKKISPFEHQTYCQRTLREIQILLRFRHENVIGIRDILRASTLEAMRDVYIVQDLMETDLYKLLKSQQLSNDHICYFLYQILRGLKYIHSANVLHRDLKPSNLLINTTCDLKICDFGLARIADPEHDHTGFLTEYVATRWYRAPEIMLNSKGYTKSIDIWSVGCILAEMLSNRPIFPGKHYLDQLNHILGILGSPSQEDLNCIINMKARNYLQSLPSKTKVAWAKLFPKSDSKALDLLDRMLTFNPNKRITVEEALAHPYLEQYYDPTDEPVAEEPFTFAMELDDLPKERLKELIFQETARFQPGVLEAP

| effect of a mutation on the interaction | Variant |
| --- | --- |
| disrupting interaction | MAAVVAATALKGRGARNARVLRGILAGATANKASHNRTRALQSHSAPEGKEEPEPLSPELEYIPRKRGKNPMKAVGLAWYSLYTRTWLGYLFYRQQLRRARNRYPKGHSKTQPRLFNGVKVLPIPVLSDNYSYLIIDTQAQLAVAVDPSDPRAVQASIEKEGVTLVAILCTHKHWDHSGGNRDLSRRHRDCRVYGSPQDGIPYLTHPLCHQDVVSVGRLQIRALATPGHTQGHLVYLLDGEPYKGPSCLFSGDLLFLSGCGRTFEGNAETMLSSLDTVLGLGDDTLLWPGHEYAEENLGFAGVVEPENLARERKMQWVQRQRLERKGTCPSTLGEERSYNPFLRTHCLALQEALGPGPGPTGDDDYSRAQLLEELRRLKDMHKSK [S46A] |
